From the nanobody polyreactivity screen of Harvey et al. (2022)

Test: yeast display, Sf9 membrane polyspecificity reagent, FACS + sequencing; frameworks hold sequencing errors
In short: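 Galactose induction of a Saccharomyces cerevisiae BJ5465 synthetic nanobody display library ran 36–48 hours. The cells were then stained for 1 hour at 4 °C with 10% biotinylated, detergent-solubilized Sf9 membrane reagent, pulled down on streptavidin microbeads and FACS-sorted into low and high (top ~1%) gates on expression and reagent-binding fluorescence. Labels for polyreactivity follow the gate of origin.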

| Sequence | polyreactivity (PSR sort gate) |
| --- | --- |
| QVHLVESGGGLVQAGGSLRLSCAASGSTFGYYAMGWYRQAPGKERELVAAIRYSGGTTYYADSVKGRFTISRDNAKNTVYLQMNSLKPEDTAVYYCAAVYTSGYYYWGQGTQVTVSS | high polyreactivity |
| QVQLVESGGGLVQAGGSLRLSCAASVRTFSAYAMGCSRQAPGKERELVARITSVDSTNYSDSVNGRFTFSRDNAKNNVYLQMNSLKPEDTAVYSCNATFGYPFVDYDDYWGQGTQVTVSS | low polyreactivity |
| QVQRVESGGGLVQAGGSLRLSCAASGRTFSSYDLGWYRQAPGKERELVAAITSGGSTYYADSVKGRFTISRDNAKNTVYLQMNSLKPDDTAVYYCAADIYWWCSKDYDYWGQGTQVTVSS | high polyreactivity |
| QVQLVESGGGLVQAGGSLRLSCAASGRIFRYYTMGWYRQAPGKERELVATITSDGRTNYADSVKGRFTISRDNAKNTVYLQMNSLKPEDTALYYCAAVYHRSYSLQSYGYWGQGTQVTVSS | high polyreactivity |
| QVQLVESGGGLVQAGGSLRLSCAASGSIFTNAMGWYRQAPGKERELVASIDANAGDTHYADSVKGRFTISRDNAKKTVYLQMNSLKPEDTAVYYCNADVTERLWTGEDDYWGQGTQVTVSS | low polyreactivity |
| QVQLVESGGGLVQAGGSLRLSCAASGSTSARYAMGWYRQAPGKERELVATITRSGTTKYADSVKGRFTISRDNAKNTVYLQMNSLKPEDTAVYYCNSDTYFPLYDYWGQGTQVTVSS | low polyreactivity |
| QVQLVESGGGLVQAGGSLRLSCAASGFIFGANAMGWYRQAPGKERELVADINRGSTYYADSVKGRFTISRDNAKNTVYLQMNSLKPEDTAVYYCNRVYTQTFNPWGFEYWGQGTQVTVSS | high polyreactivity |
| QVQLVESGGGLVQAGGSLRLSCAASGRIFSKNAMGWYRQAPGKERELVAAISSRGGSTYYADSVKGRFTISRDNAKNTVYLQMNSLKPEDTAVYYCAAGNGAYNYWCRYGYWGQGTQVTVSS | high polyreactivity |
| QVQRVESGGGLVQARGSLRLSCAPSGSIFPYYAMGCYRPAPGKERELVAGISRRGGTTYYADSVKGRLTISRDNAKNTVYIQMHSLKPEDTAVYYCAARYGPYVDRYGYCGQGTQVTVSS | high polyreactivity |
| QVQLVESGGGLVQAGGSLRLSCASSGSTFVTYAMGWYRQAPGKERELVAAITEDGASTYYADSVKGRFTISRDNAKNTVYLQMNSLKPEDTAVYYCAADPTYWPVWYVLYDYWGQGTQVTVSS | low polyreactivity |
| QVQLEESGGGLVQAGRSLRLSCAASGRTFNAYTMGWYRQAPGKERELVAAITSSGGNTYYADSVKGRFTISRDNVKNSVSLQINSLKPEDTAVYYCTTVYLYGTHDYWGQGTQVTLSS | low polyreactivity |
| QVQLVESGGGLVQAGGSLRLSCAASGRIIQRYAMGWYRQAPGKERELVATITFNTASTYYADSVKGRFTISRDNAQNTVYLQMNSLKPEDTAVYYCAAKHRGGYGYWGQGTQVTVSS | high polyreactivity |
| QVQLVESGGGLVQAGGSLRLSCAASGRPFRGYAMGWYRQAPGKDRELVAAITRSGGSTYYADSVKGRFTISRDNAKNTVYVQMTSLKPEDTAVSYCNAVRHAQSRWPYGYWGQGTQVTVSS | high polyreactivity |
| QVQLVESGGGLVQVGGSLRLSCAASGLTFYANAMGWYRQAPGKEREVVAAIRKRGGSTYYADSVKGRFTISRDNAKNTVYFQMNSLKPEDTAVYYGATYGGPFSVGTGFHDVRYDYWGHGTQVTVSS | low polyreactivity |
| QVQLVESGGGLVQAGGSLRLSCAASGRTFKYYAMGWYRQAPGKERELVAAISYNGGSTFYADSVKGRFTISRDNAKNTVYLQMNSLKPEDTAVYYCAAGSRYASELDYWGQGTQVTVSS | high polyreactivity |
| QVQLVESGGGLVQAGGSLRLSCAASGRIFTRYAMGWYRQAPGKERELVAAITQRGGTTYYADSVKGRFTISRDNAKNTVYLQMNSLKPEDTAVDYCATRYRYYTERDYWGQGTQVTVSS | high polyreactivity |
| QVQLVESGGGLVQAGGSLSLSCAASGFTFGTYTMGWYRQAPRKEREFVAAISFSGTTTYYADSVKGRFTISRDNAKNTVYLQMNSLKPEDTAVYYCATRSPRKGVKGHFRYYYWGQGTQVTVSS | high polyreactivity |
| QVQLVESGGGLVQAGGSLRLSCAASGSIFTYYVMGWYRQAPGKERELVATITGSSGSTYYADSVKGRFTISRDNAKNTVYLQMNSLKPEDTAVYYCNRTYYHYLYRGYGYWGQGTQVTVSS | low polyreactivity |
| QVQLVESGGGLVQAGGSLRLSCAASGFTFYRYAMGWYRPAPGKERELVAAISKSGGTTFYADSVKGRFTISRDNAKNTVYLQMNSLKPEDTEVYYCAVDVPYVQSYIPDPPNVYYWGQGTQVTVSS | high polyreactivity |
| QVQLVESGGGLVQAGGSLRLSCAASGFTFYSNAMGWYRQAPGKEREMVATITASGGSTYYADSVKGRFTNSRDNAKYTVYVQMYSLKPEDTAVYYCAKDLYWYYRRRGQYVYWGQGTQVTVSS | high polyreactivity |
| QVQLEESGGGLVQAGGSLRLSCAASGLISVWYVMGWYRQAPGKERELVAAIRYGGGRTYYADSVKGRFTISRDNAKNTVYLQMNSLKPEDTAVYYCNARPYRGTYGYWGQGTQVTVSS | high polyreactivity |
| QVQLVESGGGLVQAGGSLRLICAASGSTFTPYAMGWYRQEPGKERELVAAIRGSGGRTYYADSVKGRFTISRDNAKNTVYLQMNSLKPEDTAVYYCAASWLYTGWGRYDYWGQGTQVTVSS | high polyreactivity |

| Sequence | polyreactivity (PSR sort gate) |
| --- | --- |
| QVQLVESGGGLVQAGGSLRLSCAASGITFYKYVMGWYRQAPGKERELVARISKGGGSTYYADSVKGRFTISRDYAKNTVYLQMNSLKPEDTAVYYCNARGGYYVRSSAEYDYWGQGTQVTVSS | high polyreactivity |
| QVQLVESGGGLVQAGGSLRLSCAASGIIFITYAMGWYRQAPGKERELVAAITNSGGGTYYADSVKGRFTNSRDNAKNTVYLQMNSLKPEDTAVYYCAARKTAYGYRYDYWGQGTQVTVSS | high polyreactivity |
| QVQLVESGGGLVQAGGSLRLSCAASGSIFGLYAMGWYRQAPGKERELVAAINQSGGSTSYADSVKGRFTISRDNAKNTVYLQMNSLKPEDTAVYYCNRVRLNSEGFDYWGQGTQVTVSS | low polyreactivity |
| QVQLQESGGGLVQPGGSLRLSCAATGTISDSGLMGWYRQAPGKERELVSGISSGGITQYADSVNGRFTISRDNAKNTVYLQMNSLKPEDTAVYWGQGTQVTVSS | low polyreactivity |
| QVQLVESGGGLVQSGGSLRLSCAASGFIFKLNAMGWYRPAPGKERELVATITRGGDTKYADSVKGRFTISRDNAKNTVYLQMNSLKPEDTAVEYCAARYTPSSYIYRFYNFYGYDYWGQGTQVTVSS | high polyreactivity |
| QVHLVESGGGLVHAGGSLRLSCAASGSTFYYYAMGWYRQAPGKERELVAAIRLRGGGTYADSVKGRFTISRDNAKNTFYLQMNSLKPEDTAVYYCAARVWYHGTQFGYWGQGTQVTVSS | high polyreactivity |
| QVQLVESGGGLVQAGGSLRLSCAASGFIFSKNVMGWYRQAPGKERELVARITRSGGTTYYADSVKVRFTISRDNAKNTVYLQMHRLKQEDTAVYYCAARRYGYTSITWYDYWGQGTQVTVSS | high polyreactivity |
| QVQLVESGGGLVQAGGSLRLSCAASGSTFAINAMGWYRQAPGKERELVAAISSSGSTNYADSVKGRFTISRDNAKNTVYLQMNSLIPEDTAVYYCAADRVWGTPQAYVPSQFDYWGQGTQVTVSS | low polyreactivity |
| QVQLVESGGGLVQAGGSLRLSCAASGRTFYPYAMGWYRQAPGKERELVARITSGGSTYADSVKGRFTISRDNAKNTVYLQMNSLKPEDTAVYYCNTDGYLLSRYPYSVQLYEYWGQGTQVTVSS | high polyreactivity |
| QVQLVESGGGLVQAGGSLRLICAASGFTFSGNTMGWYRQAPGKERELVATISRTGGITYYADSVKGRFTISRDNAKNTVYLQMNSLKPEDTAVYYCNRRYYYFVYPDDYWGQGTQVTVSS | high polyreactivity |
| QVQLVESGGGLVQAGGSLRLSCAASGRIFGTYGMGWYRPAPGKERELVAAISGGGSTNYADSVKGRFTISRDNAKNTVYLQMNSLKPEDTAVYYCATRWYRFYPSDYWGQGTQVTVSS | low polyreactivity |
| QVQLVESGGGLVQAGGSLRLSCAASGFTFGYYAMGWYRQAPGKERELVAAITGSGGSTYYADSVKGRFTISRDNAKNTVYLQMNSLKPEDTAVYYCAADKAVYRGSPKNRSPYYYWGQGTQVTVSS | high polyreactivity |
| QVQLVESGGGLVQAGGSLRLSCAASGITIPYNAMGWYRQAPGKERELVAVISWSGGSTYYADSVKGRFTISRDNAKNTVYLQMNRQKPEDTAFYYCAAEPGGGYYYWGQGTKVTVSS | low polyreactivity |
| QVQLVESGGGLVQAGGSLRLSCAASGGTFYGYAMGWYRQAPGKERELVAAITSGDSTNYADSVKGRFTISRDNAKNTVYLQMNNLKPEDTAVYYCAAGDPTLLNESFDYWGQGTQVTVSS | low polyreactivity |
| QVQLVESGGGLVQAGGSLRLSCAASGGTFARNAMGWYRQAPGKERELVATITRRAGNTYYADSVKGRFTISRDNAKNTVYLEMNSLKREDTAVYYCAGVATWGFYPYLIPEVGNDYWGQGTQVTVSS | high polyreactivity |
| QVQLVESGGGLVQAGGSLRLSCAASGRTFFDYTMGWYRQAPGKERELVAAITGGDGSTYYADSVKGRFTISRDNAKTTVYLQMNSLKPEDTAVYDCAAEYTRTYWYAAMDYWGQGTQVTVSS | low polyreactivity |
| QVQLVESGGGLVQAGGSLRLSCAASGRIFRFYAMGWYRPAPGKERELVAAISSRGGSTYYADSVKGRFTISRDNAKNTDYFQMNSLKPEDTAVYYCNAYGSTSQMDYWGQGTQVTVSS | high polyreactivity |
| QVQLVESGGGLVQAGGSLRLSCAASGSIIAYYGMGWYRQAPGKESELVAAITSDASTYYADSVKWRFTISRDNAKKTDYLQMNSLKPVDTAVYYCYAYSYYYVYGYDMGYWGQGTQVTVSS | low polyreactivity |
| QVQLVESGGGLVQAGGSLRLSCAASGSTLYIYAKGWYRQAPGKETEFDADFSWSGGSTYYADSVKGRFTISRDYASNTVYLQMNSQKPEDTAVYNCNGDFTDSYLSRYDYWGQGTQVTVSS | low polyreactivity |
| QVQLVESGGGLVQAGGSLRLSCAASGITFYRYAMGWYRQAPGKDRELVAVISSGGSTNYADSVKGRFTISRDNAKNTVYLQMNSLKPEDTAVFYCNAVSTRFRVRTSDYWGQGTKVTVSS | high polyreactivity |
| QVQLVDTGGGLVQAGGSLRLSCAASGITFYFYVMGWYRQAPGKERELVADISTSDDSTYYADSVKGRFTISRDNAKNTVYLQMNSLKPEDTAVYYCATATRTYSAWYEYVYWGQGTQVTVSS | low polyreactivity |
